From patent US6939679 (RIKEN, dated 2005)

Biological target: T1, Mus 16-3-3 epsilon (mouse, UniProt P62259 1-255)
T1 construct: VP16 fusion as in the yeast two-hybrid screen; also called 14-3-3 E; 14-3-3 epsilon
T1 sequence: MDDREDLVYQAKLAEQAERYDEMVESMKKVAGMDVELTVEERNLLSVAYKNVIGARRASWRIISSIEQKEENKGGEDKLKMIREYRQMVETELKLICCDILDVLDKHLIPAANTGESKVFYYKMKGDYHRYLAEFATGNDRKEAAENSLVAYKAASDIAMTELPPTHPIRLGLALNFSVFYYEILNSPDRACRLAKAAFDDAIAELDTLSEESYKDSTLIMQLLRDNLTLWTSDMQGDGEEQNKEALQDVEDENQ
Test: yeast two-hybrid, lexA-NADE bait against VP16 mouse embryo cDNA library; His selection, beta-gal assay and mating test

B1: NADE-lexA fusion protein (other)
chain: MANVHQENEEMEQPLQNGQEDRPVGGGEGHQPAANNNNNNHNHNHNHHRRGQARRLAPNFRWAIPNRQMNDGLGGDGDDMEMFMEEMREIRRKLRELQLRNCLRILMGELSNHHDHHDEFCLMP
notes: range 1-124; Bait of the yeast two-hybrid screen; also called pBTM116-NADE; lexA-X fusion protein
  binding result: binds
